In patent US5629176A, “Human Kunitz-type protease inhibitor variants” (Novo Nordisk A/S, priority 1994, dated 1997):
pKi: −log10 of the molar value.

What was measured:
[1] = target: T1, Human neutrophil elastase (Homo sapiens, UniProt P08246); experiment: Inhibition of serine proteinases: neutrophil elastase, peptidyl nitroanilide substrate; type: biochemical; details: 30 minutes incubation, substrate 0.6 mM, 405 nm
T1 construct: Human neutrophil cathepsin G and elastase were purified from extracts of PMNs; from tissue; host or cells: human polymorphonuclear leukocytes (PMNs)
T1 sequence (P08246 30-267): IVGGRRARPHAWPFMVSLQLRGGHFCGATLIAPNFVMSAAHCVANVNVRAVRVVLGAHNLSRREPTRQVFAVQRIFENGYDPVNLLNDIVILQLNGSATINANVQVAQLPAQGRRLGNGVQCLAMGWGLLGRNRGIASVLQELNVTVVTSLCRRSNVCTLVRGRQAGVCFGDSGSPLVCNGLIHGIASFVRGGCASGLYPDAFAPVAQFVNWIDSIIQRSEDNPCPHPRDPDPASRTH
Protocol: (§1) The variants were purified from the yeast culture medium as described in example 1. The concentration of KFN 1651 was determined from the absorbance at 214 nm using aprotinin as a standard. Porcine trypsin was obtained from Novo Nordisk A/S. Human plasmin was obtained from Kabi (Stockholm, Sweden). Human neutrophil cathepsin G and elastase were purified from extracts of PMNs according to the method described by Baugh and Travis, Biochemistry 15, 1976, 836-843.
(§2) Peptidyl nitroanilide substrates S2251 ans S2586 were obtained from Kabi (Stockholm, Sweden), and S7388 and M 4765 were obtained from Sigma Chemical Co. (St. Louis, Mo., USA).
(§3) The serine proteinases were incubated with various concentrations of KFN 1900 or 1901 for 30 minutes. Substrate was then added (0.6 mM) and residual proteinase activity was measured at 405 nm.

[2] = target: T2, Human neutrophil cathepsin G (Homo sapiens, UniProt P08311); experiment: Inhibition of serine proteinases: cathepsin G, peptidyl nitroanilide substrate; type: biochemical; details: 30 minutes incubation, substrate 0.6 mM, 405 nm
T2 construct: Human neutrophil cathepsin G and elastase were purified from extracts of PMNs; from tissue; host or cells: human polymorphonuclear leukocytes (PMNs)
T2 sequence (P08311 21-255): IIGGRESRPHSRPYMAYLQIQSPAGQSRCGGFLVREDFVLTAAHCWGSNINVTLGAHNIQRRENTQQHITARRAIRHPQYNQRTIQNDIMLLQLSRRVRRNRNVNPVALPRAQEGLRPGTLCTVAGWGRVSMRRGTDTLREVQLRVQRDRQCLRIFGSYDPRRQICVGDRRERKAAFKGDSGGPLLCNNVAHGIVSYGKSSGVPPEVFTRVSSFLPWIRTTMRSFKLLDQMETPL
Protocol: as §1, §2, §3

[3] = target: T3, Human plasmin (Homo sapiens, UniProt P00747); experiment: Inhibition of serine proteinases: plasmin, peptidyl nitroanilide substrate; type: biochemical; details: at 1 μM; 30 minutes incubation, substrate 0.6 mM, 405 nm
T3 construct: purchased Kabi (Stockholm, Sweden)
Protocol: as §1, §2, §3

[4] = target: T4, Porcine trypsin (Sus scrofa, UniProt P00761); experiment: Inhibition of serine proteinases: trypsin, peptidyl nitroanilide substrate; type: biochemical; details: 30 minutes incubation, substrate 0.6 mM, residual activity at 405 nm
T4 construct: purchased Novo Nordisk A/S
Protocol: as §1, §2, §3

[5] = target: Porcine trypsin (porcine) (UniProt P00761); experiment: inhibition of the proteinase, 30 minutes preincubation, residual activity on a peptidyl nitroanilide substrate at 405 nm
[6] = test system: collagenase; details: cited from earlier work

T4 sequence (P00761 9-231): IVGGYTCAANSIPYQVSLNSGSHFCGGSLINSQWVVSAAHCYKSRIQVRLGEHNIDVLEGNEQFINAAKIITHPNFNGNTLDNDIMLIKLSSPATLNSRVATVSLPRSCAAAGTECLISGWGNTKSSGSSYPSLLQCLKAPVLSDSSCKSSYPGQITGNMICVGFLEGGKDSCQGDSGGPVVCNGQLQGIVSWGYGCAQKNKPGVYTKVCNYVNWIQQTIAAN
T3 sequence (P00747 581-810 limits assumed): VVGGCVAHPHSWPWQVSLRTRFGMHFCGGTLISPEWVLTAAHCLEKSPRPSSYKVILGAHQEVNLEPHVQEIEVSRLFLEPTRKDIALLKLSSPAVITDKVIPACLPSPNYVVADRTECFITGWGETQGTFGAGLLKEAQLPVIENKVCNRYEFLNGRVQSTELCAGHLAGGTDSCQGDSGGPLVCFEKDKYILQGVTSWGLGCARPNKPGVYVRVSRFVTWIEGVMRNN
T3 sequence (P00747 97-580 partner limits assumed): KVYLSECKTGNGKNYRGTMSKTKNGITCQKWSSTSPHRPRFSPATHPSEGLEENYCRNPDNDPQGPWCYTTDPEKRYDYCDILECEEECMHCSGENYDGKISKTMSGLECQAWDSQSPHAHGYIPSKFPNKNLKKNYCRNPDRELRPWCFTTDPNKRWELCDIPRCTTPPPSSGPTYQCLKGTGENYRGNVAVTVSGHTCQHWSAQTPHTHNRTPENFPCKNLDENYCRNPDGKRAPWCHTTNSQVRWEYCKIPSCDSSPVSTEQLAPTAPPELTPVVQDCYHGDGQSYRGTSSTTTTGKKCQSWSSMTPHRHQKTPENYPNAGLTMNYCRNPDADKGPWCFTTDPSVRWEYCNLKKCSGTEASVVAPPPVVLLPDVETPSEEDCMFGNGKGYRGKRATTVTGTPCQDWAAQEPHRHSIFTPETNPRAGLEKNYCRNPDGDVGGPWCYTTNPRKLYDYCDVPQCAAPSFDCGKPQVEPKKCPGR

Row | Substance | inhibition of neutrophil elastase [1] | inhibition of cathepsin G [2] | inhibition of plasmin [3] | pKi [4] | pKi [5] | inhibitory effect on collagenase [6]
1 | KFN 1900: [R15K, D16A] analog of the human α3(VI) collagen Kunitz-type protease inhibitor domain, produced from yeast strain KFN-1900 | did not inhibit | did not inhibit | weak inhibitors | 7.30 |  | 
2 | KFN 1901: [D16A] analog of the human α3(VI) collagen Kunitz-type protease inhibitor domain, produced from yeast strain KFN-1901 | did not inhibit | did not inhibit | weak inhibitors | 6.45 |  | 
3 | [D16A]-α3(VI) Kunitz-type domain analog (from UniProt P12111) |  |  |  |  | 6.45 | 
4 | [R15K, D16A]-α3(VI) Kunitz-type domain analog (from UniProt P12111) |  |  |  |  | 7.30 | 
5 | aprotinin(1-58, Val15) |  |  |  |  |  | inhibitory effect
